Results from the Human Domainome abundance scans (Beltran et al. 2025).

B1: Far upstream element-binding protein 2, residues 142 to 214; numbered along this chain, Q92945 (parent)
chain: RTSMTEEYRVPDGMVGLIIGRGGEQINKIQQDSGCKVQISPDSGGLPERSVSLTGAPESVQKAKMMLDDIVSR

Variants of: B1
Assay: abundance fitness (aPCA) (normalised: wild type 0, dead -1); higher = more abundant; growth selection in yeast, the domain comes from the species named
Conditions: Homo sapiens

Abundance fitness: each site, then its substitutions
G20: C -1.28, D -0.086, F -1.01, H -0.576, I -1.09, K -0.401, L -1.07, M -0.805, N -0.389, P -0.576, Q -0.4, R -0.428, S -0.298, T -0.59, V -1.38, W -0.96
R21: A 0.026, C -0.012, D 0.133, E 0.088, F -0.146, G -0.043, I -0.191, K 0.056, L 0.042, M -0.002, N 0.074, P 0.008, Q -0.015, S 0.02, T -0.004, V -0.068, W -0.353, Y -0.148
G22: A -0.126, C -0.204, D -0.027, E -0.071, H -0.234, I -0.34, K -0.12, L -0.234, M -0.115, N -0.167, P -0.572, Q -0.026, R -0.032, S -0.148, T -0.192, V -0.312, W -0.308, Y -0.226
G23: A -0.149, C -0.212, D -0.187, F -0.3, K -0.177, L -0.169, M -0.141, N -0.241, P -0.314, Q -0.126, R -0.11, S -0.178, T -0.27, V -0.257, W -0.32, Y -0.393
E24: A -0.112, D -0.104, F -0.03, G -0.215, H -0.019, I -0.251, K -0.078, L -0.199, M -0.059, N -0.106, P -0.797, R -0.03, S -0.076, T -0.071, V -0.092, W 0.666, Y 0.05
Q25: A -0.004, C -0.099, E 0.004, F -0.181, G 0.005, H -0.256, I -0.015, K -0.158, L -0.039, M -0.127, P -0.264, S -0.067, T 0.022, V -0.019, W -0.17, Y -0.06
I26: A -0.394, C -0.524, D -0.549, E -0.685, F -0.492, G -0.641, H -0.485, K -0.352, M -0.054, N -0.852, P -0.639, Q -0.35, R -0.533, S -0.693, T -0.451, V -0.146, W -0.215, Y -0.769
N27: A -0.095, D -0.029, E -0.006, F -0.081, G -0.137, H -0.094, I -0.109, K 0.013, L -0.076, M -0.085, P -0.476, Q -0.018, R 0.017, S -0.054, T 0.007, W -0.209
K28: A -0.144, C -0.597, D -0.431, E -0.243, F -0.4, G -0.507, H -0.162, I -0.269, L -0.239, M -0.085, N -0.256, P -0.751, R 0.002, T -0.209, V -0.419, W -0.51, Y -0.337
I29: A -0.811, E -0.736, F -0.682, G -0.856, H -0.984, K -0.787, M -0.524, N -0.869, P -0.849, Q -0.841, R -0.995, S -0.819, T -0.745, V -0.185, W -0.981, Y -0.971
Q30: A -0.067, C -0.12, D -1.02, E -0.067, F -0.252, G -0.24, H -0.384, K -0.181, L -0.241, M 0.107, N -0.455, P -0.809, R -0.066, S -0.078, T -0.17, V -0.132, W -0.507, Y -0.866
Q31: A -0.109, D -0.16, E -0.08, F -0.105, H -0.005, I -0.135, K -0.137, M -0.073, P -0.98, R -0.069, S -0.136, T 0.015, V -0.207, W -0.316, Y -0.166
D32: A -0.006, C -0.141, E -0.101, F -0.364, G -0.156, H -0.072, I -0.12, K -0.043, L -0.005, M 0.019, P -1.1, Q 0.025, R -0.085, S -0.047, T -0.074, V -0.04, W -0.243, Y -0.167
S33: A -0.138, C -0.053, D -0.916, E -0.854, F -0.474, G -0.861, H -0.854, I -0.452, L -0.575, M -0.806, N -0.897, P -1.01, R -1.06, T -0.006, V -0.714, W -1.09, Y -0.55
G34: A -0.365, C -0.356, D -0.274, E -0.243, F -0.887, H -0.384, I -0.877, K -0.319, L -0.396, M -0.391, N -0.219, P -1.16, Q -0.247, R -0.307, S -0.357, T -0.537, V -0.96, W -1.02, Y -0.998
C35: A -0.029, D -0.564, E -0.563, F -1.15, G -0.756, H -0.917, I -0.786, K -0.545, L -0.787, M -0.866, N -0.914, P -0.658, Q -0.791, R -0.848, T -0.406, V -0.209, W -1.19, Y -0.847
K36: A -0.082, C -0.182, D 0.021, E -0.036, F -0.32, G -0.431, H -0.06, I -0.095, L -0.043, M -0.03, N 0.073, P -0.918, Q -0.034, R -0.058, S -0.066, T 0.005, V -0.001, W -0.283, Y -0.047
V37: A -0.372, C -0.144, D -0.597, E -0.704, F -0.677, G -0.905, H -0.962, I -0.014, K -0.965, M -0.14, N -1.21, P -0.62, Q -0.811, R -0.804, S -0.815, T -0.484, W -0.916, Y -0.974
Q38: A 0.02, C -0.019, D -0.112, E 0.129, F -0.075, G -0.172, H 0.095, I -0.038, K -0.068, L -0.112, M 0.007, N -0.025, P -0.831, R -0.028, T 0.033, V -0.001, Y 0.027
I39: A -0.457, C -0.172, D -0.515, E -0.728, F -0.177, G -0.648, K -0.701
